B1: QP190191 (antibody, V domains shown)
VH: EVKLVESGGGLVKPGGSLKLSCAASGFTFSNYAMSWVRQTPEKRLEWVASIISGGRTYYLDSEKGRFTISRDNARNNLYLQMSSLRSEDTAMYYCTRIYYGNSFDYWGQGTTLTVSS
VL: DIVMTQSPSSQTVTAGEKVTMSCKSSQSLLNSGNQKNYLTWYQQKPGQPPKLLIYWASTRESGVPDRFTGSGSGTDFTLTISNMQAEDLAVYYCQNDYSYPFTFGSGTKLEIK
B2: QP201202 (antibody, V domains shown)
VH: EVQLQQSGPELVKPGASVKMSCKASGYTFTNYFVHWVKQKPGQGLEWIGYINPYNDDTKYNEKFKGKATLTSDKSSSTAYMDLSSLTSEDSAVYYCLSLRFFAYWGQGTLVTVSA
VL: B1 VL with Q11L, P49A, T69I, N83H, M84V, Y93F, F102L, S106A, K109N, I112L
B3: QP192193 (antibody, V domains shown)
VH: QVQLQQSGAELVRPGSSVKISCKASGYAFSSYWMNWVKQRPGQGLEWIGQIYPGNGDTTYNGKFKGQATLTADKSSSTVYMQLSSLTSEDSAVYFCARFVKGNAMDYWGQGTSVTVSS
VL: B1 VL with Q11L, K45N, L52M, T75I, T78S, N83S, M84V, V91L, D97A
B4: QP207208 (antibody, V domains shown)
VH: EVQLQQSGPELVKPGASVKMSCKASGYTFTSYIMHWVKQKPGQGLEWIGYINPYNDGTKYNEKFKGKATLTSDKSSSTVYMELSSLTSEDSAVYCCARLGFTTRNAMDYWGQGTSVTVSS
VL: B1 VL with Q11L, T12S, T14S, S22N, T40A, W56G, N83S, M84V, Y98H

Residue numbers refer to the chain shown, from its start.

The test has as its target claudin 18.2 (isoform 2 subtype of CLDN18) (UniProt P56856). The test can be described thus: FACS, 5 ug/ml antibody on dissociated GA0006 gastric cancer PDX tumor cells, PE anti-human IgG Fc. Background: A flow cytometer gives signals particle by particle.
As to IMAB362 (Claudiximab) (antibody), the Ratio of antibody-bound cells turned out to be 85.6%.

For the molecule B1, the Ratio of antibody-bound cells is 91.5%.

Consider B2, for which the Ratio of antibody-bound cells was found to be 90%.

Turning to B3, the Ratio of antibody-bound cells came out at 92.4%.

For B4, the Ratio of antibody-bound cells was 91.7%.

The values above are taken from US20220235128A1.
